Laboratory results from publication PMC12661054, “The CIP2A-TOPBP1 axis facilitates mitotic DNA repair via MiDAS and MMEJ” (Nature Communications, 2025).
Square brackets hold non-standard residues; d marks the D form. Ends that are not written are not given here. fluorescein = fluorescein label on the N-terminus; pT = C[C@@H](OP(=O)(O)O)[C@H](N)C(=O)O

Biological target: T1, GST-TOPBP1(BRCT0-2 1-290) K250E (human, UniProt Q92547 1-290, K250E)
T1 construct: TOPBP1, human, residues 1-290 (BRCT0-2); purified as the wild type; no cleavage of GST described; also called BRCT 2 (K250E); source: E. coli BL21(DE3), purified (HiTrap GST, Superdex 200)
Assay: fluorescence polarisation; 100 nM fluorescein-labelled SLX4 peptide, increasing concentrations of TOPBP1 BRCT fragment; room temperature; 25 mM HEPES pH 7.5, 150 mM NaCl, 1 mM EDTA, 0.25 mM TCEP, 0.002% Tween 20; single site with non-specific component
Conditions: both partners purified

B1: Flu-SLX4_pT1260 (peptide)
peptide: fluorescein-GYGTSWLVPA[pT]PLASRSR
modifications: also: phosphothreonine at Thr1260 (position 4 or 11)
notes: residues before the SLX4 stretch, not SLX4; SLX4, human, amino acids 1253-1267, pT1260; also called fluorescein tagged SLX4 pT1260-containing peptide; pThr1260 SLX4 peptide; source: synthetic peptide
Question: Does B1 bind?
Answer: Result: binds
